The text below walks through data of patent US20210040232A1.

Test [1] concerns the target hCTLA-4 extracellular domain (aa 1-161) fused to the trans-membrane and cytoplasmic domain of hCD300a (aa 181-299), on Jurkat/NFAT-Luc cells (human) (UniProt Q9UGN4). As to the kind of experiment: cell-based or functional assay.
For test [2], the target named is mf CTLA-4 extracellular domain (aa 1-161) fused to the trans-membrane and cytoplasmic domain of hCD300a (aa 181-299), on Jurkat/NFAT-Luc cells (Macaca fascicularis; human) (UniProt G7PL88). As to the kind of experiment: cell-based or functional assay.
Test [3] has as its target human CTLA-4 (amino acids M1-N223) on stably transfected VI-fibroblast cells (human) (UniProt P16410). As to the kind of experiment: ECL cell binding, VI-fibroblast/hCTLA-4 cells.

human CTLA-4 (amino acids M1-N223) on stably transfected VI-fibroblast cells (human), sequence (P16410 36-223 limits assumed): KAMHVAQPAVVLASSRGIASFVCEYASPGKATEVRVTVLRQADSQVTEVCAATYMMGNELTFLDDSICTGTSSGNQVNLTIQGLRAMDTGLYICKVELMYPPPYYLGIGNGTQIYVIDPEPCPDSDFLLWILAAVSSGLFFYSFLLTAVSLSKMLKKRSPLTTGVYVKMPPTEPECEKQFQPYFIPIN
hCTLA-4 extracellular domain (aa 1-161) fused to the trans-membrane and cytoplasmic domain of hCD300a (aa 181-299), on Jurkat/NFAT-Luc cells (human), sequence (Q9UGN4 other isoform, or with tags, fused parts or gaps limits assumed, form in doubt): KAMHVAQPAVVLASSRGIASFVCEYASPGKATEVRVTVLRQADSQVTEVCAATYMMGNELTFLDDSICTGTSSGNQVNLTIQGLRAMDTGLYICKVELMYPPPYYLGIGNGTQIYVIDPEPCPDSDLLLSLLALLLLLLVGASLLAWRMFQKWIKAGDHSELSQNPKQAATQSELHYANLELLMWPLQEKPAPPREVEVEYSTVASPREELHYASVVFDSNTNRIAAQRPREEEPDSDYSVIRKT
mf CTLA-4 extracellular domain (aa 1-161) fused to the trans-membrane and cytoplasmic domain of hCD300a (aa 181-299), on Jurkat/NFAT-Luc cells (Macaca fascicularis; human), sequence (Q9UGN4 other isoform, or with tags, fused parts or gaps, form in doubt): as the sequence (Q9UGN4 other isoform, or with tags, fused parts or gaps limits assumed, form in doubt) above, with S14N, L106M counted along it

Substance hIgG2 Isotype (antibody) came in with a Fold induction of IL-2 at 100 nM, APC HEK293/hCD20/hCD80 (isotype control) in test [1] of 1 fold. Also, the Fold induction of IL-2 at 100 nM, APC HEK293/hCD20/hCD86 (isotype control) in test [2] stood at 1 fold.
The substance hIgG1 Isotype Control (antibody) gave a Fold induction of IL-2 at 100 nM, APC HEK293/hCD20/hCD80 (isotype control) in test [1] of 0.8 fold. For the same substance, the Fold induction of IL-2 at 100 nM, APC HEK293/hCD20/hCD86 (isotype control) in test [2] was 1.1 fold. In addition, in test [3], the ratio of RLU signal to parental VI-fibroblast at 0.4 nM Ab was 1.
As to mIgG2 Isotype Control (antibody), the ratio of RLU signal to parental VI-fibroblast at 0.6 nM Ab in test [3] was 1.
